The supplement of paper PMC9233669
Fewer inactive variants are shown than the library holds.

Tested on: biotinyl-Phe-oxazolone
Assay: self-aminoacylation, catalytic enhancement (BFO) (fold over background); higher = more active; k-Seq, kA / k0A0; sequences stand for … in GGGAAUGGAUCCACAUCUACGAAUUC…UUCACUGCAGACUUGACGAAGCUG
Summary of the method: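 Each biotinyl-aminoacyl-oxazolone, at 2–1250 μM, was incubated with mutagenized RNA pools (0.43 μM) carrying a 21-nt variable region. The 50 μL reactions contained HEPES/NaCl/KCl/MgCl2/CaCl2 buffer with 5% acetonitrile at pH 6.9–7.0 and ran for 90 minutes at room temperature. After streptavidin capture, RNA was measured by qPCR in triplicate and by Illumina sequencing, and catalytic enhancement was calculated as median kA over the uncatalyzed rate from a pseudo-first-order fit of per-sequence fraction reacted.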

| Sequence | self-aminoacylation |
| --- | --- |
| AAGUUAGCUGAUAGUCGCAAG [Fam3.1 aminoacylation ribozyme variant] | 2.26 |
| UAGUUUGCUAAUAGUCUCAAG [Fam3.1 aminoacylation ribozyme variant] | 3.9 |
| CCACACUUCAAGAAAUCAGUC [Fam1B.1 aminoacylation ribozyme variant] | 4.56 |
| AAGUUAGCUAAUAGUCGAAAG [Fam3.1 aminoacylation ribozyme variant] | 3.83 |
| AUUACCCUGGGCAUCGUGUGA [Fam2.1 aminoacylation ribozyme variant] | 7.88 |
| CUACGUCAAAGAAUCGGUCUG [Fam1A.1 aminoacylation ribozyme variant] | 3.41 |
| AUCCACCUAGGUCAUCGUGUG [Fam2.2 aminoacylation ribozyme variant] | 3.96 |
| AAGUCUGCUAUUAGUCGCAAG [Fam3.1 aminoacylation ribozyme variant] | 4.82 |
| GAGUUUGCUAAGAGUCGCAAG [Fam3.1 aminoacylation ribozyme variant] | 3.01 |
| CCACACUUCAAGCGAUGGGUC [Fam1B.1 aminoacylation ribozyme variant] | 3.56 |
| AAGUCUGCUAAGAGUCGCAAG [Fam3.1 aminoacylation ribozyme variant] | 4.79 |
| UUACUUCGAACAAUCGGUCUG [Fam1A.1 aminoacylation ribozyme variant] | 2.19 |
| CUUACCCUGGUCGUCGAGUGA [Fam2.1 aminoacylation ribozyme variant] | 5.47 |
| AAGUUUACUAAUAGCCGCAAG [Fam3.1 aminoacylation ribozyme variant] | 2.1 |
| AUUCAUCUAGGUCAUCGGCUG [Fam2.2 aminoacylation ribozyme variant] | 4.5 |
| AUACGUCAAACAAUCGGUCUG [Fam1A.1 aminoacylation ribozyme variant] | 5.56 |
| AUUCACCAAGGUCAUCGUGUG [Fam2.2 aminoacylation ribozyme variant] | 8.03 |
| AUUAUCCUGGUCAUCGAGUUA [Fam2.1 aminoacylation ribozyme variant] | 2.02 |
| AAGUUUACUAAUAGGCGCAAG [Fam3.1 aminoacylation ribozyme variant] | 2.02 |
| GAGGUUGCUAAUAGUCGCAAG [Fam3.1 aminoacylation ribozyme variant] | 3.14 |

| Sequence | self-aminoacylation |
| --- | --- |
| AUUCACCUAGGUCGUCGGUUG [Fam2.2 aminoacylation ribozyme variant] | 4.19 |
| AUUCACCUAGGUCACCGGAUG [Fam2.2 aminoacylation ribozyme variant] | 2.86 |
| AAGGUUGCUGAUAGUCGCAAG [Fam3.1 aminoacylation ribozyme variant] | 2.05 |
| AUUACCCUGUUCAUCAAGUGA [Fam2.1 aminoacylation ribozyme variant] | 2.65 |
| CUACUUCAAACAAUCACUCUG [Fam1A.1 aminoacylation ribozyme variant] | 2.98 |
| CUACGUCAACCAAUCGGUCUG [Fam1A.1 aminoacylation ribozyme variant] | 3.4 |
| AAGUUUGCUUAUAGUCGCAGG [Fam3.1 aminoacylation ribozyme variant] | 2.26 |
| AUUACCCUGGUCGUCGAGGGA [Fam2.1 aminoacylation ribozyme variant] | 6.85 |
| AAGUUUGCUAAUGGUCGCACG [Fam3.1 aminoacylation ribozyme variant] | 2.96 |
| AAGUUUGCUAAUAGUAGCAAA [Fam3.1 aminoacylation ribozyme variant] | 2.93 |
| AAGUUUUCUAAUUGUCGCAAG [Fam3.1 aminoacylation ribozyme variant] | 2.33 |
| AAGUUAGCUAAGAGUCGCAAG [Fam3.1 aminoacylation ribozyme variant] | 2.38 |
| CAGUUUGCUAAUAGUCGAAAG [Fam3.1 aminoacylation ribozyme variant] | 2.53 |
| AUUCACCUAGGUCAUUGGUUG [Fam2.2 aminoacylation ribozyme variant] | 2.3 |
| AAUUUUGCUAAGAGUCGCAAG [Fam3.1 aminoacylation ribozyme variant] | 2.23 |
| AAGUUUGCUAAUCGUCGCAAG [Fam3.1 aminoacylation ribozyme variant] | 3.12 |
| CAACUGCAAACAAUCGGUCUG [Fam1A.1 aminoacylation ribozyme variant] | 4.06 |
| AAGUAGGCUAAUAGUCGCAAG [Fam3.1 aminoacylation ribozyme variant] | 3.24 |
| AAGUUUGUUAAUAGUCGCAAG [Fam3.1 aminoacylation ribozyme variant] | 2.01 |
| UUACUGCAAACAAUCGGUCUG [Fam1A.1 aminoacylation ribozyme variant] | 4.6 |

| Sequence | self-aminoacylation |
| --- | --- |
| AUUCAGCUAGGUCAUCGUGUG [Fam2.2 aminoacylation ribozyme variant] | 3.57 |
| CUAAUUCAAACAAUCGGUCGG [Fam1A.1 aminoacylation ribozyme variant] | 2.14 |
| CGACUUCAGACAAUCGGUCUG [Fam1A.1 aminoacylation ribozyme variant] | 3.95 |
| CCACACUUCACGCAUUCGGUC [Fam1B.1 aminoacylation ribozyme variant] | 2.45 |
| AUUCACCGAGGUCAUCGUGUG [Fam2.2 aminoacylation ribozyme variant] | 6.45 |
| AAGUUGUCUAAUAGUCGCAAG [Fam3.1 aminoacylation ribozyme variant] | 2.35 |
| UAGUUUGCUAAUAGUCGCAUG [Fam3.1 aminoacylation ribozyme variant] | 3.23 |
| AAGUUUACCAAUAGUCGCAAG [Fam3.1 aminoacylation ribozyme variant] | 2.58 |
| AAGUUUGCUCAUCGUCGCAAG [Fam3.1 aminoacylation ribozyme variant] | 3.33 |
| AAGCUUGCUAAUAGUCUCAAG [Fam3.1 aminoacylation ribozyme variant] | 2.19 |
| AAGUUUUCUUAUAGUCGCAAG [Fam3.1 aminoacylation ribozyme variant] | 3.91 |
| CUACUUGAAACAAGCGGUCUG [Fam1A.1 aminoacylation ribozyme variant] | 4.76 |
| AAUUUUGCUAAUAGUCGCCAG [Fam3.1 aminoacylation ribozyme variant] | 2.69 |
| AGGUUUGCUAAUAGUCGCAUG [Fam3.1 aminoacylation ribozyme variant] | 3.56 |
| AUUACCCUGGUCAACGUGUGA [Fam2.1 aminoacylation ribozyme variant] | 4.08 |
| CCACUUCAAACAACCGGUCUG [Fam1A.1 aminoacylation ribozyme variant] | 2.13 |
| AAGUUCGCUGAUAGUCGCAAG [Fam3.1 aminoacylation ribozyme variant] | 5.75 |
| AAGUUUUCUAAUAGUCGCAAC [Fam3.1 aminoacylation ribozyme variant] | 2.43 |
| AUUCACCUAGGACAUCGUGUG [Fam2.2 aminoacylation ribozyme variant] | 3.71 |
